Results taken from patent publication US20140378374A1, “METHODS OF TREATMENT” (GlaxoSmithKline Intellectual Property (No.2) Limited, priority 2013, published 2014).
Like-named read-outs stand apart in the source and are kept apart here.

Key:
[1] = Phase 1 single-dose (30 mg subcutaneous) pharmacokinetics and safety study in T2DM with normal or varying degrees of renal impairment; type: in vivo, human; settings: for AUC Ratio / Cmax Ratio: single 30 mg dose
Experimental: A Phase 1, open-label, nonrandomized study evaluated the pharmacokinetics of a single 30 mg subcutaneous dose of albiglutide in subjects with T2DM and normal or varying degrees of renal impairment. Eligible subjects were men and women from 30 to 75 years of age (inclusive) with T2DM and HbA1c between ≧6.0% and ≦10.5%. […] Participants on hemodialysis were on stable treatment for at least 3 months before screening and had serum albumin ≧[…] and hemoglobin ≧8 g/dL.
Venous blood samples for determination of albiglutide were drawn on Day 1 prior to dosing and 6 hours after dosing and on Days 2, 3, 5, 10, 14, 21, 29, and 42 after administration of albiglutide (30 mg subcutaneous). In subjects undergoing hemodialysis, Day 1 was planned to be the day before a scheduled hemodialysis day (Day 2). Following blood sampling on Day 1 (before dosing and 6 hours after dosing) blood samples were taken before and after each dialysis procedure over the next 7 weeks. For all subjects, each blood sample was about 3 mL and drawn into an EDTA collection tube, immediately placed on crushed ice and water, and centrifuged for 10 minutes at 1,500 g at 4° C. Approximately 1 mL of plasma was transferred to a sterile 1.8-mL tube (Nunc® CryoTube®, Sigma-Aldrich) and stored at −70° C. until assaying.
Albiglutide PK samples collected in participants undergoing hemodialysis also were analyzed to assess predialysis and postdialysis changes in albumin concentrations.
Plasma samples were analyzed for albiglutide by using a validated enzyme-linked immunosorbent assay (ELISA) and were diluted 100-fold with sample buffer before analysis. Albiglutide was captured using a rabbit anti-human GLP-1 (7-36) amide and detected using a rabbit anti-HSA conjugated to biotin. ELISA experiments were performed using the Furoninc® 96 well plate (Nunc, cat. #437796) with the following steps. 1) […], antibody coating solution of 5.0 μg/mL anti-GLP-1 (7-36) Amide (human) IgG (Peninsula Laboratories, cat. # T-4111) in 50 mM sodium carbonate-bicarbonate buffer pH 9.4 was added to each well, sealed with aseptic sealing tape and incubated for 24 hours (±12 hours) at nominally 4° C. The microtiter plate was washed 5 times with […] wash buffer (10 mM Sodium Phosphate, 150 mM NaCl, 0.05% Tween 20, pH 7.5) using plate washer; 2) […] blocking buffer of SuperBlock in PBS (SuperBlock (Pierce, cat. #37515) in PBS, 5.0% Rabbit Plasma) was added to each well, sealed and incubated with constant shaking for approximately 1.5 hour (±30 minutes) at ambient room temperature and the microtiter plate washed; 3) 100 mL of either standards, quality controls (QCs) or samples were added per well, sealed, incubated and washed; 4) 100 mL of Detection Antibody solution of Biotin Labelled Rabbit polyclonal to Human Serum Albumin (NOVUS Biologicals, cat. # NB 100-1674) was added per well, sealed, incubated and washed; 5) 100 mL of Reporter Tag solution (Streptavidin-HRPO Conjugate, Caltag, cat. # SA1007) was added per well, sealed, incubated and washed; 6) 100 mL of Development Substrate Pico (SuperSignal ELISA, Pierce, cat. #37070) was added, incubated and the plate read using plate reader (Wallac 1420 Victor Multilabel Counter, Perkin Elmer Life Sciences, Boston, Mass.). Sample concentrations were determined by interpolation from the standard curve, which was fitted using a weighted (1/x), 4-parameter logistic equation. The validated range of this assay (based on 10 μL of human plasma) is 50 ng/mL to 1,500 ng/mL.
During the single dose study and 3 of the phase 3 trials (Harmony 2, 4 and 5), the assay process was modified from manual pipetting of samples to robotic pipetting.
Pharmacokinetic calculations were based on actual sampling collection times. All statistical analyses of pharmacokinetic parameters were performed using SAS Version 9.1 or later (SAS Institute, Inc., Cary, N.C.). […]

[2] = tested on: patients with type 2 diabetes; settings: head-to-head trial; cited from earlier work
[3] = in vivo, cited from earlier work

Albiglutide: recombinant fusion protein of 2 copies of modified human GLP-1 (fragment 7-36(A8G)) genetically fused in series to recombinant human serum albumin
Any event ([1]; Hemodialysis (n = 10)): 8 (80) n (%) | Dizziness ([1]; Hemodialysis (n = 10)): 2 (20) n (%) | Fatigue ([1]; Hemodialysis (n = 10)): 2 (20) n (%) | Headache ([1]; Hemodialysis (n = 10)): 3 (30) n (%) | Hypoglycemia, Documented Symptomatic ([1]; Hemodialysis (n = 10)): 1 (10) n (%) | Nausea ([1]; Hemodialysis (n = 10)): 5 (50) n (%) | Total no. of events ([1]; Hemodialysis (n = 10)): 38 n | Vomiting ([1]; Hemodialysis (n = 10)): 5 (50) n (%) | AUC Ratio ([1]; Hemodialysis:Normal): 0.99 | Cmax Ratio ([1]; Hemodialysis:Normal): 1.11 | AUC Ratio ([1]; Hemodialysis:Normal, listed as albiglutide): 0.99 (0.63, 1.57) | Any event ([1]; Moderate (n = 11)): 3 (27.3) n (%) | Dizziness ([1]; Moderate (n = 11)): 0 n (%) | Fatigue ([1]; Moderate (n = 11)): 0 n (%) | Headache ([1]; Moderate (n = 11)): 0 n (%) | Hypoglycemia, Documented Symptomatic ([1]; Moderate (n = 11)): 0 n (%) | Nausea ([1]; Moderate (n = 11)): 0 n (%) | Total no. of events ([1]; Moderate (n = 11)): 4 n | Vomiting ([1]; Moderate (n = 11)): 0 n (%) | AUC Ratio ([1]; Moderate:Normal): 1.32 | Cmax Ratio ([1]; Moderate:Normal): 1.21 | AUC Ratio ([1]; Moderate:Normal, listed as albiglutide): 1.32 (0.96, 1.80) | Any event ([1]; Normal (n = 10)): 8 (80) n (%) | Dizziness ([1]; Normal (n = 10)): 0 n (%) | Fatigue ([1]; Normal (n = 10)): 0 n (%) | Headache ([1]; Normal (n = 10)): 0 n (%) | Hypoglycemia, Documented Symptomatic ([1]; Normal (n = 10)): 0 n (%) | Nausea ([1]; Normal (n = 10)): 0 n (%) | Total no. of events ([1]; Normal (n = 10)): 8 n | Vomiting ([1]; Normal (n = 10)): 0 n (%) | Any event ([1]; Severe (n = 10)): 4 (40) n (%) | Dizziness ([1]; Severe (n = 10)): 0 n (%) | Fatigue ([1]; Severe (n = 10)): 0 n (%) | Headache ([1]; Severe (n = 10)): 1 (10) n (%) | Hypoglycemia, Documented Symptomatic ([1]; Severe (n = 10)): 2 (20) n (%) | Nausea ([1]; Severe (n = 10)): 0 n (%) | Total no. of events ([1]; Severe (n = 10)): 8 n | Vomiting ([1]; Severe (n = 10)): 0 n (%) | AUC Ratio ([1]; Severe:Normal): 1.39 | Cmax Ratio ([1]; Severe:Normal): 1.23 | AUC Ratio ([1]; Severe:Normal, listed as albiglutide): 1.39 (1.03, 1.89) | subjects with a hypoglycemic SAE ([1]; hemodialysis group, insulin-treated subject): One | half-life, geometric mean ([1]; participants with impaired renal function): 141 to 145 h | half-life, geometric mean ([1]; participants with normal renal function): 122 h | observed increase in AUC ([1]; patients with severe renal impairment): 30 to 40% | median time of peak concentrations (Tmax) ([1]; regardless of the level of renal impairment): 88 to 96 h | nausea, percentage [2]: 10% | vomiting, percentage [2]: 5% | half-life [3]: approximately 5 days | half-life ([3]; listed as SEQ ID NO:1): about 5 days
